{"source": "the RNAGym collection of RNA variant scans (doi:10.7554/elife.80360)", "parents": {"B1": {"name": "Hairpin Ribozyme (parent)", "chain": "GUCCUCUUUCACGUGCGCGUGAAAGAGAGAAGUGAACCAGAGAAACACACGUUGUGGUAUAUUACCUGGUA"}}, "data": [{"variants_of": "B1", "test": "self-cleavage, relative activity (ratio to wild type); higher = more cleavage; co-transcriptional", "values": [{"variant": "G27A G54U", "self-cleavage": 0.213}, {"variant": "C4U U58C", "self-cleavage": 0.495}, {"variant": "G27C U33A", "self-cleavage": 0.0754}, {"variant": "U7A G29C", "self-cleavage": 0.149}, {"variant": "C18U U63A", "self-cleavage": 0.229}, {"variant": "A47G C66A", "self-cleavage": 0.138}, {"variant": "C37U G69A", "self-cleavage": 0.46}, {"variant": "G21C G69A", "self-cleavage": 0.419}, {"variant": "A28C U70G", "self-cleavage": 0.322}, {"variant": "U14A G54U", "self-cleavage": 0.471}, {"variant": "G1A U2G", "self-cleavage": 0.895}, {"variant": "A22C A36U", "self-cleavage": 0.581}, {"variant": "A23C G54C", "self-cleavage": 0.337}, {"variant": "U60A A61G", "self-cleavage": 0.216}, {"variant": "U14G A22C", "self-cleavage": 0.75}, {"variant": "C3U A49C", "self-cleavage": 0.112}, {"variant": "C10G G34A", "self-cleavage": 0.978}, {"variant": "A59U A71C", "self-cleavage": 0.153}, {"variant": "A30U G34U", "self-cleavage": 0.805}, {"variant": "G42U U60A", "self-cleavage": 0.178}, {"variant": "G19A G68U", "self-cleavage": 0.242}, {"variant": "U33G C66G", "self-cleavage": 0.0993}, {"variant": "G1C G19A", "self-cleavage": 0.197}, {"variant": "C10G A43U", "self-cleavage": 0.157}, {"variant": "A44G C66A", "self-cleavage": 0.022}, {"variant": "U14A A41C", "self-cleavage": 1.34}, {"variant": "U14G G40U", "self-cleavage": 0.2}, {"variant": "A23C A28G", "self-cleavage": 0.977}, {"variant": "G29C G56U", "self-cleavage": 0.0807}, {"variant": "G17U G69A", "self-cleavage": 0.382}, {"variant": "U52A U67G", "self-cleavage": 0.408}, {"variant": "U5A U14A", "self-cleavage": 0.164}, {"variant": "C10U A44G", "self-cleavage": 0.117}, {"variant": "G1C C37G", "self-cleavage": 0.0832}, {"variant": "A31U G34A", "self-cleavage": 0.0803}, {"variant": "A11U G68U", "self-cleavage": 0.292}, {"variant": "G15C A41U", "self-cleavage": 1.28}, {"variant": "A41C U67G", "self-cleavage": 0.124}, {"variant": "G25C G69U", "self-cleavage": 0.199}, {"variant": "A45U U58G", "self-cleavage": 0.123}, {"variant": "A45U U58A", "self-cleavage": 0.132}, {"variant": "A30G G54U", "self-cleavage": 0.123}, {"variant": "C18A A31C", "self-cleavage": 0.192}, {"variant": "U7G C38U", "self-cleavage": 0.377}, {"variant": "C50U A64C", "self-cleavage": 0.159}, {"variant": "G13A C16A", "self-cleavage": 0.82}, {"variant": "G19C A28G", "self-cleavage": 1.15}, {"variant": "U52C C65A", "self-cleavage": 1.2}, {"variant": "G32U A35G", "self-cleavage": 0.0968}, {"variant": "G27C C37A", "self-cleavage": 0.121}, {"variant": "G27U A36G", "self-cleavage": 0.393}, {"variant": "G1C A28U", "self-cleavage": 0.247}, {"variant": "U5G G13C", "self-cleavage": 0.276}, {"variant": "A22C A24U", "self-cleavage": 0.485}, {"variant": "A31U U62A", "self-cleavage": 0.115}, {"variant": "G1U U8C", "self-cleavage": 0.118}, {"variant": "C48G G54U", "self-cleavage": 0.211}, {"variant": "C10U A22G", "self-cleavage": 0.635}, {"variant": "C10U A22U", "self-cleavage": 0.373}, {"variant": "A41G U63C", "self-cleavage": 0.0946}, {"variant": "U5C A22G", "self-cleavage": 0.63}, {"variant": "G15C U67G", "self-cleavage": 0.294}, {"variant": "C16G G69A", "self-cleavage": 0.225}, {"variant": "A28U A45U", "self-cleavage": 0.224}, {"variant": "A31G G68A", "self-cleavage": 0.189}, {"variant": "A26U U63C", "self-cleavage": 0.199}, {"variant": "A31C U53A", "self-cleavage": 0.126}, {"variant": "A49G A64U", "self-cleavage": 0.0802}, {"variant": "G42U C65U", "self-cleavage": 0.12}, {"variant": "U62G C66U", "self-cleavage": 0.12}, {"variant": "G32A U63C", "self-cleavage": 0.0959}, {"variant": "G42C G68C", "self-cleavage": 0.151}, {"variant": "G25C G51C", "self-cleavage": 0.435}, {"variant": "U7C U67C", "self-cleavage": 0.215}, {"variant": "U7C U67A", "self-cleavage": 0.167}, {"variant": "U9C G68C", "self-cleavage": 0.108}, {"variant": "A47C C65A", "self-cleavage": 0.282}, {"variant": "C6G U8C", "self-cleavage": 0.228}, {"variant": "G25U G34C", "self-cleavage": 1.13}, {"variant": "A36U A43G", "self-cleavage": 0.138}, {"variant": "C16A A44U", "self-cleavage": 0.133}, {"variant": "C6G U58A", "self-cleavage": 0.29}, {"variant": "A47C U62A", "self-cleavage": 0.195}, {"variant": "A30C G40C", "self-cleavage": 0.0198}, {"variant": "C37A A64C", "self-cleavage": 0.144}, {"variant": "C16G A24G", "self-cleavage": 0.568}, {"variant": "C10G C46G", "self-cleavage": 0.162}, {"variant": "G57C U58C", "self-cleavage": 0.258}, {"variant": "G19C G34C", "self-cleavage": 1.31}, {"variant": "G19A C37G", "self-cleavage": 0.188}, {"variant": "A47C G57A", "self-cleavage": 0.225}, {"variant": "A30G C46G", "self-cleavage": 0.185}, {"variant": "G27U G40A", "self-cleavage": 0.117}, {"variant": "U2A A23U", "self-cleavage": 0.167}, {"variant": "U58C A64G", "self-cleavage": 0.502}, {"variant": "C4U G25U", "self-cleavage": 0.126}, {"variant": "G13A G56U", "self-cleavage": 0.137}, {"variant": "U20G A36C", "self-cleavage": 0.771}, {"variant": "G27C A35G", "self-cleavage": 0.181}, {"variant": "C18A G25C", "self-cleavage": 0.58}, {"variant": "C18G G69A", "self-cleavage": 0.378}, {"variant": "G32C A41C", "self-cleavage": 0.0995}, {"variant": "G27U G69A", "self-cleavage": 0.0822}, {"variant": "G27U G69U", "self-cleavage": 0.152}, {"variant": "C12U A23U", "self-cleavage": 0.807}, {"variant": "C10A G68U", "self-cleavage": 0.201}, {"variant": "A11U A71U", "self-cleavage": 0.701}, {"variant": "G19U G57C", "self-cleavage": 0.105}, {"variant": "C6U C48A", "self-cleavage": 0.209}, {"variant": "A26U G56C", "self-cleavage": 0.135}, {"variant": "U67A A71C", "self-cleavage": 0.381}, {"variant": "G40C A71U", "self-cleavage": 0.09}, {"variant": "A43U A47G", "self-cleavage": 0.121}, {"variant": "A43C U63C", "self-cleavage": 0.157}, {"variant": "A24C U33A", "self-cleavage": 0.2}, {"variant": "U33C A64U", "self-cleavage": 0.154}, {"variant": "U5G G69A", "self-cleavage": 0.0952}, {"variant": "U33C A59U", "self-cleavage": 0.128}, {"variant": "U20A G29A", "self-cleavage": 0.101}, {"variant": "A41C U55A", "self-cleavage": 0.405}, {"variant": "U9G G17C", "self-cleavage": 0.379}, {"variant": "U8A A24U", "self-cleavage": 0.571}, {"variant": "A35C A41G", "self-cleavage": 0.907}, {"variant": "U8G C18U", "self-cleavage": 0.678}, {"variant": "A41C A45U", "self-cleavage": 0.202}, {"variant": "U9A G21A", "self-cleavage": 0.573}, {"variant": "U9C U53A", "self-cleavage": 1.19}, {"variant": "U60C G69C", "self-cleavage": 0.326}, {"variant": "G17U U20C", "self-cleavage": 1.26}, {"variant": "G27A C38A", "self-cleavage": 0.127}, {"variant": "C38G A45C", "self-cleavage": 0.0432}, {"variant": "A36C U62G", "self-cleavage": 0.0267}, {"variant": "A36C U62C", "self-cleavage": 0.192}, {"variant": "C3A A64U", "self-cleavage": 0.249}, {"variant": "A61C U67C", "self-cleavage": 0.107}, {"variant": "U14A A47U", "self-cleavage": 0.143}, {"variant": "U14A A47C", "self-cleavage": 0.482}, {"variant": "G32U G40U", "self-cleavage": 0.152}, {"variant": "A36U A44G", "self-cleavage": 0.183}, {"variant": "A43G U70G", "self-cleavage": 0.288}, {"variant": "G27U C48U", "self-cleavage": 0.099}, {"variant": "U5C U53A", "self-cleavage": 0.535}, {"variant": "A49U U55C", "self-cleavage": 0.349}, {"variant": "C10A A43G", "self-cleavage": 0.132}, {"variant": "C12G C66A", "self-cleavage": 0.171}, {"variant": "C10U C48U", "self-cleavage": 0.209}, {"variant": "G32C G69C", "self-cleavage": 0.115}, {"variant": "U5A C48A", "self-cleavage": 0.0341}, {"variant": "G1A U58A", "self-cleavage": 0.186}, {"variant": "G54U U67A", "self-cleavage": 0.207}, {"variant": "A23U U62A", "self-cleavage": 0.106}, {"variant": "U9A A23C", "self-cleavage": 0.501}, {"variant": "A47U A49C", "self-cleavage": 0.144}, {"variant": "A49C U60G", "self-cleavage": 0.166}, {"variant": "A11G U70A", "self-cleavage": 0.627}, {"variant": "C37G U63C", "self-cleavage": 0.154}, {"variant": "U20G G42A", "self-cleavage": 0.266}, {"variant": "U67A U70A", "self-cleavage": 0.237}, {"variant": "A24G A28C", "self-cleavage": 0.338}, {"variant": "G34C A45U", "self-cleavage": 0.33}, {"variant": "G17C G57U", "self-cleavage": 0.222}, {"variant": "A30C G56A", "self-cleavage": 0.194}, {"variant": "A30C G56C", "self-cleavage": 0.0453}, {"variant": "G27C G51A", "self-cleavage": 0.266}, {"variant": "C4G U70C", "self-cleavage": 0.214}, {"variant": "C16G C66A", "self-cleavage": 0.197}, {"variant": "G32U G51A", "self-cleavage": 0.179}]}]}
